Earlier results in article PMC5535146.
Like-named read-outs stand apart in the source and are kept apart here.

How the values were obtained:
calmodulin [1] = target: calmodulin (UniProt P0DP23)
calmodulin [2] = target: calmodulin (UniProt P0DP23); remark: listed apart in the source

Substance | Kd (calmodulin [1]) | Kd (calmodulin [2])
CyaA adenylate cyclase AC (from UniProt P0DKX7) | 0.2 nM | 
edema factor (from UniProt P40136) |  | 20 nM
